The target in assay [1] is T1, human A-beta(1-40) peptide, monomeric (BAM) (human, biotin at the C-terminus in capture ELISA, SPR and TR-FRET; not biotinylated where coated directly (Example 7)).
T1 construct: synthetic peptide (Anaspec), TFA/HFIP treated to give monomer; also called monomeric A-beta
Nature of the assay: ABII002 TR-FRET competition assay. Background: TR-FRET usually uses a lanthanide donor and a delayed reading to cut background.

For assay [2], the target named is T1, human A-beta(1-40) peptide, monomeric …. Nature of the assay: ABII002 TR-FRET competition assay. The source holds these as a separate data set.
Assay [3] shares this target. Nature of the assay: ABII050 TR-FRET competition assay.
For assay [4], the target named is T2, aggregated A-beta(1-40) peptide (BAA) (human).
T2 construct: also called A-beta peptide aggregates
Nature of the assay: BAA ELISA. (In general: ELISA stands for enzyme-linked immunosorbent assay.)

Assay [5] addresses T1, human A-beta(1-40) peptide, monomeric …. Nature of the assay: BAM ELISA.
The target of assay [6] is T2, aggregated A-beta(1-40) peptide (BAA). Nature of the assay: BAA ELISA. The source holds these as a separate data set.
Assay [7] deals with T1, human A-beta(1-40) peptide, monomeric …. Nature of the assay: BAM ELISA. This is another data set of the same source.
Assay [8] shares this target. Nature of the assay: TR-FRET competition.
The target is the same in assay [9]. Nature of the assay: cell-based or functional assay.
Assay [10] shares this target. Nature of the assay: TR-FRET competition. The source holds these as a separate data set.
The target is the same in assay [11]. Nature of the assay: cell-based or functional assay. This is another data set of the same source.
Assay [12] addresses T3, A-beta(12-28) peptide (human).
T3 construct: Bachem peptide captured on streptavidin chip; also called monomeric A-beta(12-28); central region
T3 peptide: Biotin-VHHQKLVFFAEDVGSNK
Nature of the assay: SPR on captured A-beta(12-28).
Protocol: (§1) After capturing, surfaces are blocked by injecting an excess (200 μg/ml) of d-biotin for 180 s at 5 μl/min. A reference surface is washed and blocked with d-biotin. HBS-EP+buffer is used as the running buffer and experiments are performed at 25° C. For off-rate screening, periplasmic extracts of VHHs are injected at a 10-fold dilution for 2 min at 45 μl/min and are allowed to dissociate for 10 min. […] Between different VHH samples, the surfaces are regenerated with regeneration buffer (50 mM NaOH) for 25 s at 45 μl/min followed by 10 s 6M GuHCl at 45 μl/min if regeneration is incomplete. […] Data are double referenced by subtraction of the curves on the reference channel and of a blank running buffer injection. Sensorgrams are evaluated by fitting a 1:1 dissociation model using the Biacore T100 Evaluation software v1.1.1.

Assay [13] deals with T1, human A-beta(1-40) peptide, monomeric …. Nature of the assay: TR-FRET competition, mean IC50.
Assay [14] shares this target. Nature of the assay: 42D4 TR-FRET assay (labelled ABII42D4).
For assay [15] the target is unchanged. Nature of the assay: TR-FRET competition, labelled ABII60A10.
For assay [16] the target is unchanged. Nature of the assay: 60A10 TR-FRET assay (labelled ABII60A10).
Assay [17] has the same target. Nature of the assay: TR-FRET competition; labelled competitor not given.
Assay [18] concerns the target T4, human A-beta peptide (residues 1-24) (human).
T4 construct: used for co-crystallisation; also called A-beta(1-24)
Nature of the assay: crystal structure.
Protocol: The complex is concentrated by diafiltration to a concentration of 4 mg/ml. Crystallization trials are set up as sitting drop vapour diffusion experiments by mixing 200 nl of protein with 200 nl of reservoir solution against a reservoir volume of 100 μl. […] Data are collected at the beamline 6SA of the swiss light source at the Paul-Scherrer Institute in Villigen, Switzerland.

Assay [19] addresses T1, human A-beta(1-40) peptide, monomeric …. Nature of the assay: ELISA, format not stated.
For assay [20] the target is unchanged. Nature of the assay: SPR (Biacore T100), periplasmic extracts on captured biotinylated A-beta(1-40), 1:1 model. A general note: In SPR one partner is held on a chip, and binding of the other changes the refractive index at the surface.
Protocol: as §1
For assay [21] the target is unchanged. Nature of the assay: TR-FRET competition, labelled ABII60A10. The source holds these as a separate data set.
Assay [22] deals with T5, pGlu-A-beta(1-28), C-terminally biotinylated (human, pyroglutamate formed from the glutamate at position 3 (N-terminus); biotin at the C-terminus).
T5 construct: printed as pGlu-A-beta(1-28), while the text says that the first two N-terminal residues are missing; range 3-28 is my reading; also called pyroglutamyl-Abeta
Nature of the assay: SPR on captured C-terminally biotinylated pGlu-A-beta(1-28), 1:1 model.
Description: Association and dissociation curves can be fitted using a 1:1 interaction model and an accurate KD value can be determined.

In assay [23] the target is T6, A-beta(1-16) peptide (human).
T6 construct: Bachem peptide captured on streptavidin chip; also called monomeric A-beta(1-16)
T6 peptide: DAEFRHDSGYEVHHQK-biotin
Nature of the assay: SPR on captured A-beta(1-16).
Protocol: as §1

Assay [24] deals with T1, human A-beta(1-40) peptide, monomeric …. Nature of the assay: TR-FRET competition, labelled ABII42D4.
Assay [25] has the same target. Nature of the assay: TR-FRET competition, labelled ABII42D4. The source holds these as a separate data set.
Assay [26] shares this target. Nature of the assay: SPR, captured C-terminally biotinylated A-beta(1-40), 1:1 model.
Protocol: as §1
Assay [27] concerns the target T7, mouse A-beta(1-40) peptide (mouse).
T7 construct: Bachem peptide coated directly; also called rodent A-beta(1-40)
T7 peptide: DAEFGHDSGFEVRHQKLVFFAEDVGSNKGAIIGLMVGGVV
Nature of the assay: ELISA EC50.

For assay [28], the target named is T1, human A-beta(1-40) peptide, monomeric …. Nature of the assay: TR-FRET competition and SPR.
Assay [29] shares this target. Nature of the assay: ELISA, peptide coated at 2 µg/ml, anti-myc detection.
The target in assay [30] is T7, mouse A-beta(1-40) peptide. The assay is described as above.
For assay [31], the target named is T1, human A-beta(1-40) peptide, monomeric …. Nature of the assay: TR-FRET competition, mean IC50; mean IC50 of Table XII.

Read-outs that look alike come from different tables or passages of the source. Ends that are not written are not given here. * marks the point of attachment. Biotin = O=C1N[C@H]2[C@H](CS[C@H]2CCCCC(=O)*)N1 Where only a bound is given, the exact number is not on record here.

T5 sequence (peptide, as listed by the source): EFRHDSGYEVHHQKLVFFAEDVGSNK
T4 sequence (peptide, as listed by the source): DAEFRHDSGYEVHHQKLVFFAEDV

B1: ABII315-PEG20 (designed binder)
chain: EVQLLESGGGLVQPGGSLRLSCAASGRTFNNYNMGWFRQAPGKGREFVAAVSRSGVSTYYADSVKGRFTISRDNSKNTVYLQMNSLRPEDTAVYYCAAAYRGTAINVRRSYSSWGQGTLVTVSSGGGGCGGGSEVQLLESGGGLVQPGGSLRLSCVHSGPTFRTDTMGWFRQAPGKGREFVAAVTWNSGRINYADSVKGRFTISRDNSKNTAYLQMNSLRPEDTAVYYCAAHRFVVGGNRVEDWRYWGQGTLVTVSS
modifications: PEG20 on the Cys at position 5 of the 9GS linker
notes: 059-9GSC-035; purified as His6-tagged construct before PEGylation
As usually defined, the IC50 is the concentration that gives 50% inhibition. Higher therefore signals weaker potency. Turning to B1, the “fold improved IC50 against monovalent ABII035” value in assay [1] stood at 27 fold. For the same molecule, in assay [1], the “fold improved potency against 3D6 IgG” value turned out to be 14.6 fold. Besides, the values for the IC50 in [2] and in assay [3] were 0.13 nM and 0.28 nM, respectively.

B2: ABII60A10 = ABII050 (VHH)
VHH: EVQLVESGGGLVQAGGSLRLSCAASGRTFNNYNMGWFRQAPGKEREFVAAVSRSGVSTYYADSVKGRFTISRDNAKNAVYLQMNSLKPEDTAIYYCGAAYRGTAINVRRSYDSWGQGTQVTVSS
By EC50 is commonly meant the concentration needed to bring the measured effect to its halfway point. A high value points to a need for much substance. With B2, the EC50 in assay [4] was 0.8 nM; in assay [5], 4.9 nM; in [6] it was 0.8 nM; in assay [7], 4.9 nM. The “fold improved IC50 against reference VHH 2D2” value in assay [8] came to 36 fold. In [9], the “inhibition of peptide aggregation (ThT fluorescence), 28 µM VHH” value was 80%. Also, the IC50 is 11.1 nM in assay [10]; 19 nM in [13]; 6.3 nM in [3]; more than 1000 nM in [14]; 11.1 nM in assay [15]; 30 nM in assay [16]. Further, in [17], the IC50 amounted to 19 nM. In addition, the “Aggregation inhibition (% inhibition at 26 µM)” value in assay [11] was 80%. In assay [12], the binding result is “binds”.

B3: ABII059 (VHH)
VHH: EVQLLESGGGLVQPGGSLRLSCAASGRTFNNYNMGWFRQAPGKGREFVAAVSRSGVSTYYADSVKGRFTISRDNSKNTVYLQMNSLRPEDTAVYYCAAAYRGTAINVRRSYSSWGQGTLVTVSS
notes: humanized variant of ABII050
As for B3, the binding result in [18] is “binds”. For the same molecule, in assay [19], the “fold difference of EC50 against the 2D2 and 2G6 VHHs” value was more than 50 fold. Also, the “Aggregation inhibition (% inhibition at 26 µM)” value in [11] worked out at 80%. Besides, the results for the IC50 in assay [13], in assay [3] and in [17] were 33 nM, 12.8 nM and 33 nM, respectively.

B4: ABII60G11 (VHH)
VHH: EVQLVESGGGSEQAGGSLRLSCATSGRAFSVYAWFRQAPGKERTFVAAVAWVGGSTFYSDSVKGRFTISRDNAKNTVFLHMNSLKPEDTAAYYCAARLYGGRWYNSPRVDDFEYWGQGTQVTVSS
By koff is commonly meant the rate constant with which the complex falls apart. High values mean fast dissociation, low ones slow dissociation. On to B4, for which the EC50 was 6 nM in assay [4] and 187 nM in [5]. For the same molecule, the binding result in [12] was “binds”. Besides, in assay [15], the IC50 worked out at 34.4 nM. In [20], this molecule gave a koff of 0.027 s⁻¹.

B5: monoclonal antibody m266 (IgG) (antibody, V domains shown)
VH: EVKLVESGGGLVQPGGSLKLSCAVSGFTFSRYSMSWVRQTPEKRLELVAQINSVGNSTYYPDTVKGRFTISRDNAEYTLSLQMSGLRSDDTATYYCASGDYWGQGTTLTVSS
VL: DVVMTQTPLSLPVSLGDQASISCRSSQSLIYSDGNAYLHWFLQKPGQSPKLLIYKVSNRFSGVPDRFSGSGSGTDFTLKISRVETEDLGVYFCSQSTHVPWTFGGGTKLEIK
notes: also called IgG m266; IgG266
What is called Kd is the equilibrium constant for the complex coming apart. A high value points to lower affinity. With B5, the IC50 in assay [3] was 0.53 nM; in assay [21] it was 0.5 nM. The same molecule returned a Kd in assay [22] of 0.224 nM.

B6: ABII42D4 (VHH)
VHH: EVQLVESGGGLVLAGGSLRLSCVHSGPTFSTDTMGWFRQAPGKEREFVAAVTWNSGRTNYADSVKGRFTVSRDNTRNAAYLQMSGLKDEDTAVYYCTAHRLVVGGTSVGDWRYWGQGTQVTVSS
notes: also called ABIIPMP42D4
Take B6: the EC50 turned out to be 0.9 nM in [4], 14.2 nM in assay [5], 0.9 nM in assay [6] and 14.2 nM in assay [7]. For the same molecule, the “fold improved IC50 against reference VHH 2G6” value in assay [8] is not below 21 fold. Moreover, the IC50 is 46.8 nM in assay [10]; 44 nM in [24]; 46.8 nM in assay [25]; 51 nM in assay [14]; more than 1000 nM in assay [16]. Further, the binding result in assay [23] is on record as “binds”. Also, the Kd in assay [26] turned out to be 16 nM. Besides, the koff in assay [20] was 0.0061 s⁻¹.

B7: ABII111B5_M107R = ABII002 (VHH)
VHH: EVQLVESGGGLVLAGGSLRLSCVHSGPTFRTDTMGWFRQAPGKEREFVAAVTWNSGRINYADSVKGRFTVSRDNTRNAAYLQMSGLKDEDTAVYYCTAHRFVVGGNRVEDWRYWGQGTQVTVSS
notes: myc-tagged in ELISA
In the case of B7, the “fold difference mouse against human A-beta” value in [27] was 1.8 fold. Further, the “fold improvement of IC50 and KD over original ABII42D4” value in assay [28] was more than 10 fold. Moreover, the IC50 in assay [2] stood at 2.9 nM; in [24] it was 2.9 nM; in assay [31], 2 nM. Further, the EC50 in [29] was 1.8 nM; in [30], 3.3 nM.

These data come from patent US20120058118A1 (Boehringer Ingelheim, published 2012).
